According to US20210285965A1 (SEATTLE CHILDREN S HOSPITAL D B A SEATTLE CHILDREN S …, published 2021):

Experiments:
Assay in all cases: immunoaffinity peptide capture on mAb-Protein G magnetic beads, read by SRM-MS (immuno-SRM); ELISA screening
[1] = target: T1, ADA 93-101 signature peptide (EGVVYVEVR) (human)
T1 peptide: EGVVYVEVR

[2] = target: T2, CD42 154-165 signature peptide (TLPPGLLTPTPK)
T2 construct: Endogenous tryptic peptide of CD42 (glycoprotein Ib) from digested dried blood spots of patients and normal controls
T2 peptide: TLPPGLLTPTPK

[3] = target: T3, ATM 1561-1572 signature peptide (LLDPFPDHVVFK)
T3 construct: Endogenous tryptic peptide of ATM from digested dried blood spots of normal controls
T3 peptide: LLDPFPDHVVFK

[4] = target: T4, SH2D1A 19-32 signature peptide (LLLATGLDGSYLLR)
T4 construct: Tryptic peptide of SH2D1A (SAP); also called SAP
T4 peptide: LLLATGLDGSYLLR

[5] = target: T5, CYBB 509-521 signature peptide (TLYGRPNWDNEFK)
T5 construct: Endogenous tryptic peptide of CYBB from digested dried blood spots of patients and normal controls
T5 peptide: TLYGRPNWDNEFK

[6] = target: T6, CD56 122-130 signature peptide (NAPTPQEFR)
T6 construct: Endogenous tryptic peptide of CD56 (NCAM) from digested dried blood spots of patients and normal controls
T6 peptide: NAPTPQEFR

[7] = target: T7, CD42 128-137 signature peptide (LTSLPLGALR)
T7 construct: Endogenous tryptic peptide of CD42 (glycoprotein Ib) from digested dried blood spots of patients and normal controls
T7 peptide: LTSLPLGALR

[8] = target: T8, DOCK8 1272-1283 signature peptide (TSGIVLSSLPYK)
T8 construct: Endogenous tryptic peptide of DOCK8 from digested dried blood spots of patients and normal controls
T8 peptide: TSGIVLSSLPYK

B1: anti-ADA 93 monoclonal antibody (antibody, V domains shown)
VH: QEQLEESGGDLVKPGSSLTLTCTASGFSFTNSDWECWVRQAPGKGLEWIACIYGDSRSGYYASWAKGRFTISKTSSTTVTLQMTTLTAADTATYFCARNLGSLWGPGTLVTVSS
VL: QVLTQTPSSVSAAVGGTVTINCQSSQNVVFNNRLAWFQQKPGQPPKLLIYQASTLASGVPPRFKGSGSGTQFTLTISDLECDDAATYYCLGSYDCSSTDCNTFGGGTEVVVKG
notes: Full heavy and light chains without leader; also called clone EB0608A-3C12-H2 / EB0608A-3C12-K2
**Q.** Does B1 bind [1]?
**A.** Result: binds

B2: anti-CD42 154 monoclonal antibody (antibody, V domains shown)
VH: EVQLQQSGPELVKPGASVKMSCKASGYTFTGYNMHWVKQSHGKSLEWIGDINPKTGENSYNQKFKGKATLTISKSSSTAYMELRSLTSEDSAVYYCVRWGVYYLDHWGQGTTLTVSS
VL: DIVMTQAAFSNPVTLGTSASISCRSTKSLLYSDGITYLYWYLQRPGQSPQLLIYRMSDLASGVPDRFSGSGSGTDFTLRISRVEAEDVGVYYCAQMVEFPPTFGGGTKLEIK
notes: Hybridoma antibody; also called Hybridoma SJSH4-1H11c
**Q.** Does B2 bind [2]?
**A.** Result: binds

B3: anti-ATM 1561 monoclonal antibody (antibody, V domains shown)
VH: QEQLVESGGGLVQPGGSLTLTCKASGFDFSSGGMCWVRQAPGKGLEWIGCIVNGDGSTYFATWAKGRFTITRTSSTTVTLQMTSLTAADTATYFCWRYWALWGPGTLVTVSS
VL: IVMTQTPSSKSVPVGGTVTINCQASESLYNNNRLAWFQQKPGQPPKLLIYSASTLASGVPDRFSGSGSGTQFTLTISDVVCDDAATYYCVGGRSRVTDGIAFGGGTEAVVKG
notes: Full heavy and light chains without leader; also called clone EB0608D-4A10-H4 / EB0608D-4A10-K1
**Q.** Does B3 bind [3]?
**A.** Result: binds

B4: anti-SH2D1A (SAP) 19 monoclonal antibody (antibody, V domains shown)
VH: QSLEESGGRLVTPGGTLTLTCTVSGFSLSSYDMSWVRQAPGKGLEWIGFGNTGGSTYYASWAKGRFTISRTSTTVDLRMTSLTAADTATYFCTRGAPGWITTNMWGPGTLVTVSL
VL: QVLTQTPSPVSAAVGGTVTISCQSSQSVYRNKCLAWYQQKPGQPPKLLIYKASTLASGVPSRFSGSGSGTQFTFTISDLECDDSATYYCVGYYNTNTNTTTFGGGTEVVVKG
notes: Full heavy and light chains without leader; also called Anti-SH2D1A 19; clone EB0612B-2F4-H1 / EB0612B-2F4-K1
**Q.** Does B4 bind [4]?
**A.** Result: binds

B5: anti-CYBB 509 monoclonal antibody (antibody, V domains shown)
VH: QSLEESGGGLVKPGASLTLTCTASGFSFSRSYWICWVRQAPGKGLEWLGCIYAGSSGSTYYASWAKGRFTISKTSSTTVTLQMTSLTAADTATYFCARGNNNIIILDLWGPGILVTVSS
VL: AVLTQTPSPVSAAVGGTVTISCQASQSVYNNNALSWYQQKPGQPPKLLIYDASDLAPGVPSRFSGSGSGTQFTLTISDVQCDDAATYYCLGGYSVSSDNAFGGGTEVVVNG
notes: Full heavy and light chains without leader; also called clone EB0611C-1E12-H2 / EB0611C-1E12-K2
**Q.** Does B5 bind [5]?
**A.** Result: binds

B6: anti-CD56 122 monoclonal antibody (antibody, V domains shown)
VH: QSLEESGGDLVKPGASLTLTCKASGLDFSSNYYMCWVRQAPGKGLEWIACIYSSSLNTWYASWAKGRFTISKSTSLHTVTLQMTSLTAADTATYFCTRGGGVYVGADYGFYFYLWGPGTLVTVSS
VL: DIVMTQTPSSVEAPVGGTVTIKCQASQSIDSWCAWYQQKPGQPPKLLIYKASTLESGVPSRFKGSGSGTEFTLTISDLECADAATYFCQSYYPTTGSDNAFGGGTEVVVKG
notes: Full heavy and light chains without leader; also called clone EB0608C-3H4-H2 / EB0608C-3H4-K2
**Q.** Does B6 bind [6]?
**A.** Result: binds

B7: anti-CD42 128 monoclonal antibody (antibody, V domains shown)
VH: QAYLQQSGAVLVRPGASVKMSCKASGYTFSSYNIHWVKQTPRQGLEWIGGIYPGNGDTSYNKKFKDKATLTVDKSSNTAYMHLSSLTSEDSAVFFCASDGTRYWGQGTTLTVSS
VL: EVVMTQTPLTLSVTIGQAVSISCTSSQSLLASDGKTYLNWLLQRPGQSPKRLIYLVSKLDSGVPDRFTGSGSGTDFTLKISRVEADDLGVYCCWQGAHSPLTFGAGTRLELK
notes: Hybridoma antibody; also called Hybridoma SJSH4 3B8-1b
**Q.** Does B7 bind [7]?
**A.** Result: binds

B8: anti-DOCK8 1272 monoclonal antibody (antibody, V domains shown)
VH: EVQLQQSGTVLARPGASVKMSCKASGYTFTSYWMHWVKQRPGQGLEWIGAIFPGNSNTRYNQKFKGKAKLTAVTSASTAYMELSSLTNEDSAVYYCADDNAFDYWGQGTTLTVSS
VL: QIVLTQSPAIMSASPGEKVTMTCSASSSVSSRYLHWYQQKSGASPKLWIYGTSNLSSGVPDRFSGSGSGTSYSLTISSVETEDAATYYCQQYHSDPFTFGTGTKLEIK
notes: Hybridoma antibody; also called Hybridoma SJSH5-1C2-2E
**Q.** Does B8 bind [8]?
**A.** Result: binds
